Molecular target: GCN4 leucine zipper (aa 245-285) fused C-terminal to LexA (yeast)
Assay: cell-based or functional assay

growth on -Trp/-Leu/-His plates with 3-AT (HIS3 reporter, two hybrid): 20 mM 3-AT
Substance: Gal4 AD-anti-GCN4 (H-R66K) scFv (from UniProt P04386 768-881)

From patent US20030096306A1
